# Measured values published in PMC2607015, “The Cell Adhesion Molecule “CAR” and Sialic Acid on Human Erythrocytes Influence Adenovirus In Vivo Biodistribution” (PLoS Pathogens, 2009).
# Columns and labels:
# [1] = target: wild type CAV-2 fiber head (canine adenovirus serotype 2 (CAV-2)) (UniProt Q65914); test: crystal structure; crystals of the CAV-2 fiber head - CAR D1 complex (space group I422) soaked with 10 to 50 mM sialyl-D-lactose; 2.9 Å
# [2] = target: wild type CAV-2 fiber head (canine adenovirus serotype 2 (CAV-2)) (UniProt Q65914); test: crystal structure; untagged CAV-2 fiber head crystallised with sialyl-D-lactose; 1.9 Å
# CAR D1 (human) = CAR D1 (human) (UniProt P78310)
# [3] = target: T1, HAd37 fiber head in complex with CAR D1 (Human adenovirus D37, UniProt Q64823); test: X-ray crystal structure ([…] Å); assay type: binding; conditions: ligand soaked at 10 to 50 mM; ternary complex with CAR D1; Neu5Ac site of fiber head, not overlapping CAR site; HAd37 Neu5Ac site near the three-fold axis
# T1 construct: gene L5; fiber head residues 177-365 with CAR domain D1; one monomer of each in asymmetric unit (space group I23, trimer by symmetry); with Coxsackievirus and adenovirus receptor (human), Ig-like domain D1
# [4] = target: T2, CAV-2 fiber head (CAV-2H^wt) (Canine adenovirus 2 strain Toronto A 26-61, UniProt Q65914); test: X-ray crystal structure ([…] Å); assay type: binding; conditions: crystals grown with 8 mM and soaked in about 80 mM ligand, pH 7.4; Neu5Ac moiety bound at trimer periphery (Asn435, Ser419, Ser416, Gln417, Arg515)
# T2 construct: gene L5; fiber head domain residues 358-542, N-terminal His-tag cleaved with TEV, pPROEX HTb; homotrimer
# CAR D1 (human), sequence (P78310 20-140): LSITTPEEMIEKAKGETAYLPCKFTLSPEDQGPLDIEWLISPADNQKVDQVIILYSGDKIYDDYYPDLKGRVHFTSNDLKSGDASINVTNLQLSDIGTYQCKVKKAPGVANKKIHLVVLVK
Compound,stoichiometry N [1],stoichiometry N [2],fold reduction of CAV-2 hemagglutination of human erythrocytes (CAR on the erythrocytes) after pre-incubating the erythrocytes with the fiber head (CAR D1 (human)) [fold],X-ray crystal structure (1.55 Å) [3],X-ray crystal structure (1.9 Å) [4]
wild type CAV-2 fiber head (from UniProt Q65914 358-542) (domain or fragment),3,3,> 256,,
CAV-2H^SA−1: CAV-2 fiber head mutant R515A (from UniProt Q65914 358-542) (domain or fragment),,,16,,
CAV-2H^CAR−: CAV-2 fiber head with E384A mutation (CAR binding site) (from UniProt Q65914 358-542) (domain or fragment),,,2,,
"CC(=O)N[C@H]1[C@H]([C@H](O)[C@H](O)CO)O[C@@](O[C@H]2[C@@H](O)[C@@H](CO)O[C@@H](O[C@H]3[C@H](O)[C@@H](O)C(O)O[C@@H]3CO)[C@@H]2O)(C(=O)O)C[C@@H]1O (stereo partly drawn) [sialyl-D-lactose, α2-3 N-acetylneuraminosyl-D-lactose]",,,,one CAR D1 molecule and one sialyl-D-lactose molecule in the asymmetric unit,clear density for six N-acetyl neuraminic acid (Neu5AC) moieties in the asymmetric unit
